B1: NADH oxidase (NOX) from Lactobacillus brevis DSM 20054, wild type, SEQ ID NO:2 (Levilactobacillus brevis ATCC 367) (protein)
chain: MKVTVVGCTHAGTFAIKQILAEHPDAEVTVYERNDVISFLSCGIALYLGGKVADPQGLFYSSPEELQKLGANVQMNHNVLAIDPDQKTVTVEDLTSHAQTTESYDKLVMTSGSWPIVPKIPGIDSDRVKLCKNWAHAQALIEDAKEAKRITVIGAGYIGAELAEAYSTTGHDVTLIDAMDRVMPKYFDADFTDVIEQDYRDHGVQLALSETVESFTDSATGLTIKTDKNSYETDLAILCIGFRPNTDLLKGKVDMAPNGAIITDDYMRSSNPDIFAAGDSAAVHYNPTHQNAYIPLATNAVRQGILVGKNLVKPTVKYMGTQSSSGLALYDRTIVSTGLTLAAAKQQGVNAEQVIVEDNYRPEFMPSTEPVLMSLVFDPDTHRILGGALMSKYDVSQSANTLSVCIQNENTIDDLAMVDMLFQPNFDRPFNYLNILAQAAQAKVAQSVNA

Assays:
[1] = molecular target: NADH oxidase (NOX) from Lactobacillus brevis DSM 20054, wild type, SEQ ID NO:2 (Levilactobacillus brevis, UniProt Q03Q85); conditions: higher NADH concentrations (up to 0.5 mM); photometric
[2] = pH stability of the NADH oxidase (8 hours incubation in buffers, residual activity); format: physicochemical
Description: The pH optimum was measured in the range pH 4.0 to 10.0. Different buffers were used depending on the pH value. As a check on the influence of the buffer, when changing the buffer this pH value was measured twice in the different buffers (pH 7.0 and pH 8.5). 0.1 M citric acid/Na2PO4 was used for the range pH 4.0-7.0, 0.1 M TEA was used for the range 7.0-8.5, and 0.1 M glycine/NaOH was used for the range pH 8.5-10.0.
At pH 8.5 the enzyme is still up to 100% stable after 8 hours in TEA/NaOH buffer as well as in glycine/NaOH buffer. The figure illustrates that the enzyme stable in the slightly alkaline range (pH 8-9) is also stable in a wider range. This range is useful for application purposes if the NADH oxidase for the oxidation is to be coupled with an NAD-dependent dehydrogenase, since the pH optimum of many dehydrogenases for the oxidation lies in a slightly alkaline range.

[3] = temperature optimum of the NADH oxidase; format: biochemical; conditions: FIG. 3
[4] = temperature stability of the NADH oxidase (storage at 30° C. and 42° C., residual activity); format: physicochemical
Description: In order to determine the temperature stability enzyme samples were stored at 30° C. and 42° C., samples were taken at various times, and the residual activity was measured. […] At 42° C. the enzyme deactivates initially (up to ca. 120 minutes) relatively quickly, following which it appears to be stable at ca. 50% residual activity over a relatively long time (at least 16 hours).

[5] = determination of the KM value for NADH; format: biochemical
[6] = NAD+ regeneration coupled with R-specific alcohol dehydrogenase recADHG37D, oxidation of (R,S)-phenylethanol, GC analysis; format: biochemical; conditions: 50 mM (R,S)-phenylethanol, 2 mM NADH, pH 7.0, 1 U recADHG37D and 2 U NADH oxidase, FIG. 4
Description: This may be necessary for example if NAD-dependent dehydrogenases are used for the oxidation, as has been shown in a general way hereinbefore (reaction scheme 1).
(R,S)-phenylethanol was used as alcohol, and the reaction was carried out as a batch reaction.
As a control the same experiment was carried out, but without the addition of NADH oxidase.

[7] = substrate: NC(=O)C1=CN([C@@H]2O[C@H](COP(=O)(O)OP(=O)(O)OC[C@H]3O[C@@H](n4cnc5c(N)ncnc54)[C@H](O)[C@@H]3O)[C@@H](O)[C@H]2O)C=CC1; assay: purified protein, by the assay type; conditions: other: NADH varied 0.0013 to 0.52 mM, photometric, 340 nm, 30° C., 100 mM potassium phosphate pH 7.5, 1 mM DTT (standard test), enzyme purified by 4 chromatographic steps

Molecule | excess inhibition by NADH [1] | first stability optimum (pH) ([2]; 8 hours incubation, FIG. 2) | second stability optimum (pH) ([2]; 8 hours incubation, FIG. 2) | stability in the range pH 5.5-7.5 ([2]; 8 hours incubation, pH 5.5-7.5) | stability (residual activity) after 8 hours at pH 8.5 ([2]; pH 8.5, TEA/NaOH buffer as well as glycine/NaOH buffer, 8 hours) | temperature of maximum activity [3] | time for which the enzyme is in practice stable ([4]; storage at 30° C.) | half-value time of deactivation ([4]; storage at 30° C., after ca. 400 minutes) | residual activity ([4]; storage at 42° C., after initial deactivation (up to ca. 120 minutes), stable for at least 16 hours) | excess (substrate) inhibition at higher NADH concentrations ([5]; NADH up to 0.5 mM) | NADH concentration at which maximum activity is reached ([5]; NADH varied from 0.0013 to 0.52 mM) | oxidation of the R-alcohol of (R,S)-phenylethanol in the coupled reaction [6] | Km [7]
NC(=O)C1=CN([C@@H]2O[C@H](COP(=O)(O)OP(=O)(O)OC[C@H]3O[C@@H](n4cnc5c(N)ncnc54)[C@H](O)[C@@H]3O)[C@@H](O)[C@H]2O)C=CC1 [NADH] | weak excess inhibition |  |  |  |  |  |  |  |  |  |  |  | 
B1 |  | 5.0 pH | 8.5 pH | moderately stable | up to 100% | 40 °C | ca. 400 minutes | ca. 18 hours | ca. 50% | only a weak excess inhibition | 0.1 mM | almost completely oxidised | 24 µM

From patent US7435574B2 (Degussa AG, priority 2001, dated 2008)
